According to article PMC8778164, “Towards Complete Tumor Resection: Novel Dual-Modality Probes for Improved Image-Guided Surgery of GRPR-Expressing Prostate Cancer” (Pharmaceutics, 2022):

Key:
GRPR = target: T1, GRPR (Homo sapiens, UniProt P30550); test: Competition binding assay against [111In]In-NeoB on PC-3 cells; details: IC50 of compound over IC50 of NeoB
T1 construct: host or cells: PC-3 cells (human prostate adenocarcinoma)
Description: GRPR-positive human-derived prostate adenocarcinoma epithelial PC-3 cells (ATCC, Manassas, VA, USA) were cultured in Ham’s F-12K (Kaighn’s) Medium (Gibco, Paisley, UK) supplemented with 10% fetal bovine serum, penicillin (100 units/mL) and streptomycin (100 µg/mL). Cells were routinely passaged and grown in tissue culture flasks at 37 °C in a humidified atmosphere with 5% CO2.
The affinity of all six probes for GRPR was determined using a competition binding assay. PC-3 cells were seeded in 12-well plates (2.5 × 10^5 cells/well) one day prior to the experiment. The next day, cells were washed with warm Dulbecco’s phosphate-buffered saline (PBS) (Gibco). Subsequently, cells were incubated for 1 h at 37 °C with 0.5 mL incubation medium (Ham’s F-12K, 20 mM HEPES, 1% BSA, pH 7.4) containing 10^−9 M [^111In]In-NeoB, in the presence or absence of increasing concentrations (10^−12 to 10^−6 M) of one of the six unlabeled probes or NeoB (positive control). After incubation, the medium was removed and cells were washed twice with cold PBS. To determine the amount of activity that was taken up by the cells, cells were lysed using 1 M NaOH for > 20 min at rt, then collected and measured in a γ-counter. To determine the amount of radioactivity added per well, samples of the incubation medium containing 10^−9 M [^111In]In-NeoB were also measured. The results are expressed as the percentage of added dose (%AD) and were normalized to the uptake of [^111In]In-NeoB (in the absence of cold compound). Data represent the mean ± standard deviation (SD) of triplicate wells.
Statistical analysis was performed using GraphPad Prism version 5.01 (GraphPad Software Inc., San Diego, CA, USA). The half-maximal inhibitory concentration (IC50) values were estimated by the log (inhibitor) vs. the normalized response fitting routine. To compare the uptake values of the two probes studied in vivo, an unpaired t-test was used with the significance levels set at 5%. The results are represented as mean ± standard deviation (SD).

[1] = Stability in PBS at 37 °C (iTLC); format: physicochemical; details: intact labeled ligand after incubation at 37 °C in PBS, n = 1
Description: (§1) Stability in PBS was determined by incubating 20 µL of the labeled compounds (∼11 MBq) in PBS (80 µL) at 37 °C. Radiochemical purity was determined by iTLC at 30 min, 1 h, 2 h and 4 h. Stability in the serum was carried out by adding 70 µL of the labeled compound (∼35 MBq) to 330 µL of mouse serum (Merck, Haarlerbergweg, The Netherlands). The mixture was incubated at 37 °C. At different time points (30 min, 1 h, 2 h and 4 h), an aliquot of the mixture (50 µL) was added to 50 µL ACN. The vial was vortexed and centrifuged at 10,000 rpm for 20 min and the supernatant was analyzed by iTLC.

[2] = Distribution coefficient (LogD7.4), shake-flask method; format: physicochemical; details: n-octanol/PBS pH 7.4, n = 3; read-out: Log D7.4
Description: Distribution coefficients (LogD7.4) for the ^111In-labeled compounds were determined by a shake-flask method. The experiments were performed in triplicate for each radioligand. A sample containing the radioligand (0.5–2.0 MBq) was dissolved in 1 mL solution of phosphate-buffered saline (0.01 M, pH 7.4) and n-octanol (v:v = 1:1). The vials were vortexed vigorously and then centrifuged at 10,000 rpm for 3 min, for phase separation. Samples (10 μL) of each phase were taken out and analyzed using a gamma counter. LogD7.4 values were calculated, using the following equation: LogD7.4 = log {(counts in n-octanol phase)/(counts in PBS phase)}.

[3] = Stability in mouse serum at 37 °C (iTLC); format: in vitro ADME; details: for Stability in Mouse Serum (%) 30 min / Stability in Mouse Serum (%) 1 h / Stability in Mouse Serum (%) 2 h / Stability in Mouse Serum (%) 4 h: intact labeled ligand after incubation at 37 °C in mouse serum, n = 1
Description: as §1

T1 sequence (P30550 whole entry): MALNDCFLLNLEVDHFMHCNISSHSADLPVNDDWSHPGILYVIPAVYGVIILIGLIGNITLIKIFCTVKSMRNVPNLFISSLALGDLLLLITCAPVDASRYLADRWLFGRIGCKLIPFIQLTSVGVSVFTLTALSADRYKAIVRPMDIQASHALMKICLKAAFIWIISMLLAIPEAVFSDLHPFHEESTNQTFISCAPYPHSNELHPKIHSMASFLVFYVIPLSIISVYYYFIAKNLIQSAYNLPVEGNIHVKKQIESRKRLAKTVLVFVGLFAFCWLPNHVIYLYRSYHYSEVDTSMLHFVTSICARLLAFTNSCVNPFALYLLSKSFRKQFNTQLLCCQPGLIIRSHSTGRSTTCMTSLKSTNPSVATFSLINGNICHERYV

Question: Which “Ratio Compound/NeoB (IC50)” value (GRPR) does the source give for `CC(C)CC(CC(C)C)NC(=O)[C@H](Cc1c[nH]cn1)NC(=O)CNC(=O)[C@@H](NC(=O)[C@H](C)NC(=O)[C@H](Cc1c[nH]c2ccccc12)NC(=O)[C@H](CCC(N)=O)NC(=O)[C@@H](Cc1ccccc1)NC(=O)COCC(=O)Nc1ccc(CNC(=O)OC2CCCC3C=NN=C(c4ccc(CNC(=O)CCCCC[N+]5=C(/C=C/C=C/C=C6N(C)c7ccc(S(=O)(=O)O)cc7C6(C)C)C(C)(C)c6cc(S(=O)(=O)[O-])ccc65)cc4)C3CC2)cc1)C(C)C` (some centres unmarked) [Compound 10] here?
Answer: Its value is 12.9.

Question: For `CC(C)CC(CC(C)C)NC(=O)[C@H](Cc1c[nH]cn1)NC(=O)CNC(=O)[C@@H](NC(=O)[C@H](C)NC(=O)[C@H](Cc1c[nH]c2ccccc12)NC(=O)[C@H](CCC(N)=O)NC(=O)[C@@H](Cc1ccccc1)NC(=O)CCOCCOCCOCCOCCNC(=O)OC1CCCC2C=NN=C(c3ccc(CNC(=O)CCCCC[N+]4=C(/C=C/C=C/C=C5N(C)c6ccc(S(=O)(=O)O)cc6C5(C)C)C(C)(C)c5cc(S(=O)(=O)[O-])ccc54)cc3)C2CC1)C(C)C` (some centres unmarked) [Compound 11], which “Ratio Compound/NeoB (IC50)” value (GRPR) is on record?
Answer: The value was 4.5.

Question: With `CC(C)CC(CC(C)C)NC(=O)[C@H](Cc1c[nH]cn1)NC(=O)CNC(=O)[C@@H](NC(=O)[C@H](C)NC(=O)[C@H](Cc1c[nH]c2ccccc12)NC(=O)[C@H](CCC(N)=O)NC(=O)[C@@H](Cc1ccccc1)NC(=O)COCC(=O)Nc1ccc(CNC(=O)[C@H](CCCCNC(=O)CCOCCOCCOCCOCCNC(=O)OC2CCCC3C=NN=C(c4ccc(CNC(=O)CCCCC[N+]5=C(/C=C/C=C/C=C6N(C)c7ccc(S(=O)(=O)O)cc7C6(C)C)C(C)(C)c6cc(S(=O)(=O)[O-])ccc65)cc4)C3CC2)NC(=O)CN2CCN(CC(=O)O)CCN(CC(=O)O)CCN(CC(=O)O)CC2)cc1)C(C)C` (some centres unmarked) [Compound 12] as the compound, how does the “Ratio Compound/NeoB (IC50)” value (GRPR) read?
Answer: The value was 9.1.

Question: Which “Ratio Compound/NeoB (IC50)” value (GRPR) does the source give for `CC(C)CC(CC(C)C)NC(=O)[C@H](Cc1c[nH]cn1)NC(=O)CNC(=O)[C@@H](NC(=O)[C@H](C)NC(=O)[C@H](Cc1c[nH]c2ccccc12)NC(=O)[C@H](CCC(N)=O)NC(=O)[C@@H](Cc1ccccc1)NC(=O)CCOCCOCCOCCOCCNC(=O)[C@H](CCCCNC(=O)CCOCCOCCOCCOCCNC(=O)OC1CCCC2C=NN=C(c3ccc(CNC(=O)CCCCC[N+]4=C(/C=C/C=C/C=C5N(C)c6ccc(S(=O)(=O)O)cc6C5(C)C)C(C)(C)c5cc(S(=O)(=O)[O-])ccc54)cc3)C2CC1)NC(=O)CN1CCN(CC(=O)O)CCN(CC(=O)O)CCN(CC(=O)O)CC1)C(C)C` (some centres unmarked) [Compound 13] here?
Answer: The value was 18.2.

Question: Which “Ratio Compound/NeoB (IC50)” value (GRPR) does the source give for `CC(C)CC(CC(C)C)NC(=O)[C@H](Cc1c[nH]cn1)NC(=O)CNC(=O)[C@@H](NC(=O)[C@H](C)NC(=O)[C@H](Cc1c[nH]c2ccccc12)NC(=O)[C@H](CCC(N)=O)NC(=O)[C@@H](Cc1ccccc1)NC(=O)COCC(=O)Nc1ccc(CNC(=O)[C@H](CCCCNC(=O)OC2CCCC3C=NN=C(c4ccc(CNC(=O)CCCCC[N+]5=C(/C=C/C=C/C=C6N(C)c7ccc(S(=O)(=O)O)cc7C6(C)C)C(C)(C)c6cc(S(=O)(=O)[O-])ccc65)cc4)C3CC2)NC(=O)CN2CCN(CC(=O)O)CCN(CC(=O)O)CCN(CC(=O)O)CC2)cc1)C(C)C` (some centres unmarked) [Compound 14] here?
Answer: Its value is 24.6.

Question: For `CC(C)CC(CC(C)C)NC(=O)[C@H](Cc1c[nH]cn1)NC(=O)CNC(=O)[C@@H](NC(=O)[C@H](C)NC(=O)[C@H](Cc1c[nH]c2ccccc12)NC(=O)[C@H](CCC(N)=O)NC(=O)[C@@H](Cc1ccccc1)NC(=O)CCOCCOCCOCCOCCNC(=O)[C@H](CCCCNC(=O)OC1CCCC2C=NN=C(c3ccc(CNC(=O)CCCCC[N+]4=C(/C=C/C=C/C=C5N(C)c6ccc(S(=O)(=O)O)cc6C5(C)C)C(C)(C)c5cc(S(=O)(=O)[O-])ccc54)cc3)C2CC1)NC(=O)CN1CCN(CC(=O)O)CCN(CC(=O)O)CCN(CC(=O)O)CC1)C(C)C` (some centres unmarked) [Compound 15], which “Ratio Compound/NeoB (IC50)” value (GRPR) is on record?
Answer: The value was 11.2.

Question: Which “Stability in PBS (%) 30 min” value [1] does the source give for `CC(C)CC(CC(C)C)NC(=O)[C@H](Cc1c[nH]cn1)NC(=O)CNC(=O)[C@@H](NC(=O)[C@H](C)NC(=O)[C@H](Cc1c[nH]c2ccccc12)NC(=O)[C@H](CCC(N)=O)NC(=O)[C@@H](Cc1ccccc1)NC(=O)CCOCCOCCOCCOCCNC(=O)[C@H](CCCCNC(=O)CCOCCOCCOCCOCCNC(=O)OC1CCCC2C=NN=C(c3ccc(CNC(=O)CCCCC[N+]4=C(/C=C/C=C/C=C5N(C)c6ccc(S(=O)(=O)O)cc6C5(C)C)C(C)(C)c5cc(S(=O)(=O)[O-])ccc54)cc3)C2CC1)NC(=O)CN1CCN(CC(=O)O)CCN(CC(=O)O)CCN(CC(=O)O)CC1)C(C)C` (some centres unmarked) [[^111In]In-13, metal not drawn] here?
Answer: Its value is 87.4%.

Question: What about the “Stability in PBS (%) 1 h” value [1] of the same compound?
Answer: The value was 87.5%.

Question: And the “Stability in PBS (%) 2 h” value [1]?
Answer: Its value is 86.2%.

Question: And the “Stability in PBS (%) 4 h” value [1]?
Answer: Its value is 84.4%.

Question: And the logD [2]?
Answer: Its logD is -1.8 ± 0.01.

Question: What about the “Stability in Mouse Serum (%) 30 min” value [3] of the same compound?
Answer: Its value is 98.1%.

Question: And the “Stability in Mouse Serum (%) 1 h” value [3]?
Answer: Its value is 97.9%.

Question: What about the “Stability in Mouse Serum (%) 2 h” value [3] of the same compound?
Answer: Its value is 97.6%.

Question: What about the “Stability in Mouse Serum (%) 4 h” value ([3]; 4 h) of the same compound?
Answer: The value was 97.3%.

Question: What about the “Protein-Bound Fraction at 4 h (%)” value ([3]; mouse serum, 4 h) of the same compound?
Answer: Its value is 5.6%.

Question: With `CC(C)CC(CC(C)C)NC(=O)[C@H](Cc1c[nH]cn1)NC(=O)CNC(=O)[C@@H](NC(=O)[C@H](C)NC(=O)[C@H](Cc1c[nH]c2ccccc12)NC(=O)[C@H](CCC(N)=O)NC(=O)[C@@H](Cc1ccccc1)NC(=O)COCC(=O)Nc1ccc(CNC(=O)[C@H](CCCCNC(=O)OC2CCCC3C=NN=C(c4ccc(CNC(=O)CCCCC[N+]5=C(/C=C/C=C/C=C6N(C)c7ccc(S(=O)(=O)O)cc7C6(C)C)C(C)(C)c6cc(S(=O)(=O)[O-])ccc65)cc4)C3CC2)NC(=O)CN2CCN(CC(=O)O)CCN(CC(=O)O)CCN(CC(=O)O)CC2)cc1)C(C)C` (some centres unmarked) [[^111In]In-14, metal not drawn] as the compound, how does the “Stability in PBS (%) 30 min” value [1] read?
Answer: The value was 74.2%.

Question: And the “Stability in PBS (%) 1 h” value [1]?
Answer: The value was 48.5%.

Question: And the “Stability in PBS (%) 2 h” value [1]?
Answer: The value was 30.9%.

Question: What about the “Stability in PBS (%) 4 h” value [1] of the same compound?
Answer: Its value is 33.7%.

Question: And the logD [2]?
Answer: Its logD is -1.52 ± 0.1.

Question: And the “Stability in Mouse Serum (%) 30 min” value [3]?
Answer: The value was 94.6%.

Question: What about the “Stability in Mouse Serum (%) 1 h” value [3] of the same compound?
Answer: The value was 94.1%.

Question: What about the “Stability in Mouse Serum (%) 2 h” value [3] of the same compound?
Answer: Its value is 94.0%.

Question: What about the “Stability in Mouse Serum (%) 4 h” value ([3]; 4 h) of the same compound?
Answer: Its value is 94.1%.

Question: And the fraction unbound at 4 h ([3]; mouse serum, 4 h, read-out: Protein-Bound Fraction at 4 h (%) (converted))?
Answer: Its fraction unbound at 4 h is 0.929.
